Reference: paper PMC5941314

Tests used:
Ube2T (Homo sapiens) = Ube2T (Homo sapiens) (UniProt Q9NPD8); conditions: cited from earlier work
[1] = molecular target: ZNRF1^CTD (C-terminal domain of ZNRF1, residues 139–227) (UniProt Q8ND25); test: ITC; ZNRF1 construct (10–30 µM) in the cell, E2 in the syringe; 25°C; 20 mM sodium phosphate pH 8.0, 150 mM NaCl; single site model
ZNRF1^CTD (C-terminal domain of ZNRF1, residues 139–227), sequence (Q8ND25 139-227): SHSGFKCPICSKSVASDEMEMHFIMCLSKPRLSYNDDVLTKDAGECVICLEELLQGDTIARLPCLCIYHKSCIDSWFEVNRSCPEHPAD

Ube2D2, sequence (P62837 whole entry): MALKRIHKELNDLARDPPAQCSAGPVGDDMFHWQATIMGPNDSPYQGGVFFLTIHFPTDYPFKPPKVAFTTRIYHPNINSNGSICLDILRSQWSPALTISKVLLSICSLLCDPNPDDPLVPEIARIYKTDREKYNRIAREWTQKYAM
Ube2W, sequence (Q96B02 whole entry): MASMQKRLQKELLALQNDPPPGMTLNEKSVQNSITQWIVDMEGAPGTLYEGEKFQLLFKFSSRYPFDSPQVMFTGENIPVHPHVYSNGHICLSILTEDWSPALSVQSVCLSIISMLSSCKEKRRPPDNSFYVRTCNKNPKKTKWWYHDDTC
Ube2T (Homo sapiens), sequence (Q9NPD8 whole entry, the tested form may be a part): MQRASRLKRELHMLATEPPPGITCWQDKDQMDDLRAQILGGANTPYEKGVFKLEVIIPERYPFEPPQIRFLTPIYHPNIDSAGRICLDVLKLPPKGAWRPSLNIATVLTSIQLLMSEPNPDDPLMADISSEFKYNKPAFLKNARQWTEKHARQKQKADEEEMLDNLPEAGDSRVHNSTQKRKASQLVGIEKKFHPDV
FANCL, sequence (Q9NW38 2-375): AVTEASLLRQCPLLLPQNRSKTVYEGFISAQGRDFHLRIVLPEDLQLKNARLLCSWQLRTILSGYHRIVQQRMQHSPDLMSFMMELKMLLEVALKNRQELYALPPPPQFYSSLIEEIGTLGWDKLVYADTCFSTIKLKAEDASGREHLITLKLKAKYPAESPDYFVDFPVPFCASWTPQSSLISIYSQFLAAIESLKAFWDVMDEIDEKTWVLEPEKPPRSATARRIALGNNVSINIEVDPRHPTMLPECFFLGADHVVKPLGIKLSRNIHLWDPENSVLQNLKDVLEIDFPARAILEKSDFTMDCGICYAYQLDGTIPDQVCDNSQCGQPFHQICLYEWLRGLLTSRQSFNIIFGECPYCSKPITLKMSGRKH

dH [1] [kcal/mol]	stoichiometry N [1]	Substance	Kd (Ube2T (Homo sapiens)) [nM]
–	–	FANCL (from UniProt Q9NW38)	500
-7.79	0.963	Ube2D2 (from UniProt P62837 1-147) (enzyme)	–
-8.85	0.906	Ube2W (from UniProt Q96B02 1-151) (enzyme)	–
